Experimental data from US20140178394A1.

Biological target: HLA-A*0201 HLA class I MHC monomer (iTopia Epitope Discovery System, coated on plate) (human)
Experiment: overall rank from iTopia EDS and CEM T2 assays on HLA-A*0201

B1: reference peptide 513 (NY-ESO-1), … (peptide)
peptide: SLLMWITQV
modifications: not checked
Q: For B1, which RANK F-Score is on record?
A: The RANK F-Score was 2.
